Laboratory results as given in patent US20180140673A1.

Assays:
[1] = biological target: FGF receptor/BKL complex on HEK293 cells overexpressing human beta-klotho (BKL) (human) (UniProt Q86Z14); assay: cell-based or functional assay
[2] = biological target: FGFR1c receptor/BKL complex on differentiated mouse 3T3-L1 adipocytes (mouse) (UniProt P16092); assay: cell-based or functional assay
Sequence of FGFR1c receptor/BKL complex on differentiated mouse 3T3-L1 adipocytes (mouse) (P16092 22-822, chain 1 of 2): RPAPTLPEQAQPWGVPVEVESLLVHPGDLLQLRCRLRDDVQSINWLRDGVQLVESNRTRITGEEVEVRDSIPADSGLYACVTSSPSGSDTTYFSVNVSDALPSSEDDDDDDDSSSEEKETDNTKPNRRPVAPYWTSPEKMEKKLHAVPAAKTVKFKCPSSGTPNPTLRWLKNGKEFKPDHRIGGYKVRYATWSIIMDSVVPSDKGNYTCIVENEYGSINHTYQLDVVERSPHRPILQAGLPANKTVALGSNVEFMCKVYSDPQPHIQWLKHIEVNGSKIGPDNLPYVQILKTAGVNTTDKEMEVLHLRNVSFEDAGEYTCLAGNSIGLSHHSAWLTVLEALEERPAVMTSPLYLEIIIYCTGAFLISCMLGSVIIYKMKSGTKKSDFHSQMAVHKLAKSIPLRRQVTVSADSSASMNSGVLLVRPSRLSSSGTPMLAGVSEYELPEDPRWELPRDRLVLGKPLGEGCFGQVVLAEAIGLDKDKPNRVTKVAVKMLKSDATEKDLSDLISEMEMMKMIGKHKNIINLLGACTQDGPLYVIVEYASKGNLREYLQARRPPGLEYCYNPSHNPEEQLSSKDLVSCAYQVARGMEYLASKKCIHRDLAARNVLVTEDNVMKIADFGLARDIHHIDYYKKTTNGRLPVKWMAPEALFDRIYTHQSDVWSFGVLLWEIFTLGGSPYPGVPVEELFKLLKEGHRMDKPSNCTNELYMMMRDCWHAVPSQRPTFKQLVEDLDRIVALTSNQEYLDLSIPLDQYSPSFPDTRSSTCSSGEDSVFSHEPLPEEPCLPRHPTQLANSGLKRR
Sequence of FGFR1c receptor/BKL complex on differentiated mouse 3T3-L1 adipocytes (mouse) (Q99N32 whole entry, chain 2 of 2, further chain): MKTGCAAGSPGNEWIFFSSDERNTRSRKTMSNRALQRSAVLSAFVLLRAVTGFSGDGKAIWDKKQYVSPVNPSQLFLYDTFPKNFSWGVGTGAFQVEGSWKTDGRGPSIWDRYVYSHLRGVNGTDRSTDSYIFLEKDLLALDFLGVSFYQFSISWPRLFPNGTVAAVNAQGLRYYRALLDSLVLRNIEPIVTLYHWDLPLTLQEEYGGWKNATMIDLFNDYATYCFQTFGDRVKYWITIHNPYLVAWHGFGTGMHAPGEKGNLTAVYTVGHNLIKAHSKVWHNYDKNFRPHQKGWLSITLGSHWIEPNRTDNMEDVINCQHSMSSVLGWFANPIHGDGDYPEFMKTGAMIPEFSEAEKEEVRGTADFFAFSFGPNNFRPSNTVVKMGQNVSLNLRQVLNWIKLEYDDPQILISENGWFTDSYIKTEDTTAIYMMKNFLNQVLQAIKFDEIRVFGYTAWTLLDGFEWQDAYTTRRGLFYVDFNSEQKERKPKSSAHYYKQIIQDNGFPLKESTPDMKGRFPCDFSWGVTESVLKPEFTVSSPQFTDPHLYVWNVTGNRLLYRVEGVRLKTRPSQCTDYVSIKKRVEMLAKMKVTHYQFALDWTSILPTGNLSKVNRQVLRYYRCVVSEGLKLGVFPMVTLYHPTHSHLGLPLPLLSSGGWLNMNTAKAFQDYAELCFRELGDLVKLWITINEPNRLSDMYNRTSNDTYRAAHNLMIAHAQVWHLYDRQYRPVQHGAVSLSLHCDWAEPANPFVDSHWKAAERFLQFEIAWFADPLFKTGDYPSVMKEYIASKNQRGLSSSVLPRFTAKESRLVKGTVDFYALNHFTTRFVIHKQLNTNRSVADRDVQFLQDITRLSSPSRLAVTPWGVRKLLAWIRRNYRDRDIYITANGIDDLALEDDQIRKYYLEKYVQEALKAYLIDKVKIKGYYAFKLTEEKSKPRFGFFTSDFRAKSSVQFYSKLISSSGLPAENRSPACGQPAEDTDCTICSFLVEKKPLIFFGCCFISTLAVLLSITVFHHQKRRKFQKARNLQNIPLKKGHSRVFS

Sequence of S{Beta-180}-2-aminoethylsulfanyl-Ala[Gln121,Leu168,Cys180,des181]FGF21 (Q9NSA1 other isoform, or with tags, fused parts or gaps limits assumed): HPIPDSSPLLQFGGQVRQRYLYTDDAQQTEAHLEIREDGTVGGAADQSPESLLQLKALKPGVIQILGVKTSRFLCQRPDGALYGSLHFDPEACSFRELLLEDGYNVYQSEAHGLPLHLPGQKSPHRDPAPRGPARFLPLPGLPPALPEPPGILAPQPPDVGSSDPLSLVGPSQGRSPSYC
Sequence of S{Beta-180}-2-aminoethylsulfanyl-Ala[Gln121,Leu168,Cys180]FGF21 (Q9NSA1 other isoform, or with tags, fused parts or gaps limits assumed): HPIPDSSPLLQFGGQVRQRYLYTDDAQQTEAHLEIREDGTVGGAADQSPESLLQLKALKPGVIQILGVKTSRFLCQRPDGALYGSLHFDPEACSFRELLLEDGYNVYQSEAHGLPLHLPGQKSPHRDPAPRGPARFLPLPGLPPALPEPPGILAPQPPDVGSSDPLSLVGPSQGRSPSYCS
Sequence of FGF receptor/BKL complex on HEK293 cells overexpressing human beta-klotho (BKL) (human) (Q86Z14 whole entry, one chain of several): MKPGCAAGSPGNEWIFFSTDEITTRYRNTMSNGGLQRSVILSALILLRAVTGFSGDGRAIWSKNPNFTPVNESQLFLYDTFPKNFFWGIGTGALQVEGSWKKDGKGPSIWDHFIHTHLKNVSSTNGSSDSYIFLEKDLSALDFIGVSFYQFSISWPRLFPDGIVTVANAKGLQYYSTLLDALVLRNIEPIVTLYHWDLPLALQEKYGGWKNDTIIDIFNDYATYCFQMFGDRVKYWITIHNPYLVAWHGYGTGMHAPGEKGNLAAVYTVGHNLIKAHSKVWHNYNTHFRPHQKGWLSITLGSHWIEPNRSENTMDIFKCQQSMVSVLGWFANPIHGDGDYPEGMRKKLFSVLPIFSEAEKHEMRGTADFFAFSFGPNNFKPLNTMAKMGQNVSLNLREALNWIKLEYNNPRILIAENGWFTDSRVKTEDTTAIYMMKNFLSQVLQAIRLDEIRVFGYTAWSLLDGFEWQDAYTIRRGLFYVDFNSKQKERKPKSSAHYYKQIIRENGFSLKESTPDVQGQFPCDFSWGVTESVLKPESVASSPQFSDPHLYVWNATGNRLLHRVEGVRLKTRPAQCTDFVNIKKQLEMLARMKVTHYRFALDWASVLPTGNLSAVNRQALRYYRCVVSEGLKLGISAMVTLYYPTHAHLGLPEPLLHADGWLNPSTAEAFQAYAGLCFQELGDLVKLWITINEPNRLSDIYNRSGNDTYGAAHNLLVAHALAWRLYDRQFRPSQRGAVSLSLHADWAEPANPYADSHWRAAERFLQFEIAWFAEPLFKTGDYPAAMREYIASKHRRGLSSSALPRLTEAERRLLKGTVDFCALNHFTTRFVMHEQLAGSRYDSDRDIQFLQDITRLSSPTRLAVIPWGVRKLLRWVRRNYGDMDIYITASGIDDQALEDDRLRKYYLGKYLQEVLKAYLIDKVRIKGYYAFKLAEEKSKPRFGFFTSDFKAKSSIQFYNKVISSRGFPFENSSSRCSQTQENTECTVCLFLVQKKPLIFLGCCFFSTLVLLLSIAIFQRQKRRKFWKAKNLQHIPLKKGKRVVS

| EC50 (0.1% HSA) (nM), pERK, HEK293/BKL cells [1] [nM] | EC50 (nM), pERK, HEK293/BKL cells [1] [nM] | Glucose uptake EC50 (nM), 3T3-L1 adipocytes [2] [nM] | Glucose uptake Emax (%), 3T3-L1 adipocytes [2] [%] | Substance |
| --- | --- | --- | --- | --- |
| 134 | 107 | 107 | 54 | S{Beta-179}-[2-[2-[[2-[2-[2-[[2-[2-[2-[[(4S)-4-carboxy-4-(15-carboxypentadecanoyl-amino)butanoyl]amino]ethoxy]ethoxy]acetyl]amino]ethoxy]ethoxy]acetyl]amino]-ethylamino]-2-oxoethyl]-Ala[Gln121,Leu168,Cys179]FGF21 (from UniProt Q9NSA1 29-209) (ligand) |
| – | 20 | 73 | 72 | S{Beta-180}-2-aminoethylsulfanyl-Ala[Gln121,Leu168,Cys180,des181]FGF21 (from UniProt Q9NSA1 29-207) (ligand) |
| – | 2.3 | 2.6 | 102 | S{Beta-180}-2-aminoethylsulfanyl-Ala[Gln121,Leu168,Cys180]FGF21 (from UniProt Q9NSA1 29-209) (ligand) |
| 4 | 7 | 2.7 | 87 | S{Beta-180}-[2-[2-[[2-[2-[2-[[2-[2-[2-[[(4S)-4-carboxy-4-(11-carboxyundecanoyl-amino)butanoyl]amino]ethoxy]ethoxy]acetyl]amino]ethoxy]ethoxy]acetyl]amino]-ethylamino]-2-oxoethyl]-Ala[Gln121,Leu168,Cys180]FGF21 (from UniProt Q9NSA1 29-209) (ligand) |
| 6 | 6 | 6.7 | 106 | S{Beta-180}-[2-[2-[[2-[2-[2-[[2-[2-[2-[[(4S)-4-carboxy-4-(13-carboxytridecanoyl-amino)butanoyl]amino]ethoxy]ethoxy]acetyl]amino]ethoxy]ethoxy]acetyl]amino]-ethylamino]-2-oxoethyl]-Ala[Gln121,Leu168,Cys180]FGF21 (from UniProt Q9NSA1 29-209) (ligand) |
| 6 | 4 | 9.1 | 98 | S{Beta-180}-[2-[2-[[2-[2-[2-[[2-[2-[2-[[(4S)-4-carboxy-4-(15-carboxypentadecanoyl-amino)butanoyl]amino]ethoxy]ethoxy]acetyl]amino]ethoxy]ethoxy]acetyl]amino]-ethylamino]-2-oxoethyl]-Ala[Gln121,Leu168,Cys180]FGF21 (from UniProt Q9NSA1 29-209) (ligand) |
| 20 | 8 | 8 | 71 | S{Beta-180}-[2-[2-[[2-[2-[2-[[2-[2-[2-[[(4S)-4-carboxy-4-(17-carboxyheptadecanoyl-amino)butanoyl]amino]ethoxy]ethoxy]acetyl]amino]ethoxy]ethoxy]acetyl]amino]-ethylamino]-2-oxoethyl]-Ala[Gln121,Leu168,Cys180,des181]FGF21 (from UniProt Q9NSA1 29-207) (ligand) |
| 48 | 5 | 32 | 109 | S{Beta-180}-[2-[2-[[2-[2-[2-[[2-[2-[2-[[(4S)-4-carboxy-4-(17-carboxyheptadecanoyl-amino)butanoyl]amino]ethoxy]ethoxy]acetyl]amino]ethoxy]ethoxy]acetyl]amino]-ethylamino]-2-oxoethyl]-Ala[Gln121,Leu168,Cys180]FGF21 (from UniProt Q9NSA1 29-209) (ligand) |
